Data published in paper doi:10.1101/2025.09.16.676506 (bioRxiv, 2025).
Like-named read-outs stand apart in the source and are kept apart here.

What was measured:
Assay in all cases: cryo-EM structure
TatB3C3 complex [1] = molecular target: T1, TatB3C3 complex (E. coli, UniProt P69425;P69423)
T1 sequence 1: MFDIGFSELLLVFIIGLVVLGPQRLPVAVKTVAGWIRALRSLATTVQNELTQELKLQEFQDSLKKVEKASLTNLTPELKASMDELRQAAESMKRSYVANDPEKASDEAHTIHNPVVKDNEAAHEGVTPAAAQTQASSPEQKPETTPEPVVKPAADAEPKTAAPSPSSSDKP
T1 sequence 2: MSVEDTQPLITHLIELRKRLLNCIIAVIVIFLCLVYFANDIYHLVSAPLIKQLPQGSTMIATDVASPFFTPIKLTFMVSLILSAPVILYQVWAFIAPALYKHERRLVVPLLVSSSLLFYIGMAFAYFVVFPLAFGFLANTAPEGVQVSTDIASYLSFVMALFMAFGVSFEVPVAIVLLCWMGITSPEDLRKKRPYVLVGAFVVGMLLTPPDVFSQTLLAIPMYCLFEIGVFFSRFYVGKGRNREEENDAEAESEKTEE

TatB3C3 complex [2] = molecular target: T1, TatB3C3 complex; remark: listed apart in the source
cryo-EM structure = molecular target: the molecule itself
[3] = molecular target: T2, TatC with a C-terminal 3XFLAG tag (E. coli), P69423; conditions: remark: other sources report otherwise
T2 chain: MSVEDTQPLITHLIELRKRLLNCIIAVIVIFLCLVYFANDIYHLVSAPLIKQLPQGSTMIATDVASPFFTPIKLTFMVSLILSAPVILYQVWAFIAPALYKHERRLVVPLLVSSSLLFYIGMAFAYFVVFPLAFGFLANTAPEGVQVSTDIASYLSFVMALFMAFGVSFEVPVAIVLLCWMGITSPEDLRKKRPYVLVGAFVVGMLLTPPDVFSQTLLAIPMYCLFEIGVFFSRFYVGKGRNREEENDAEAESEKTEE

B1: SufI–8×His (natural protein)
chain: MSLSRRQFIQASGIALCAGAVPLKASAAGQQQPLPVPPLLESRRGQPLFMTVQRAHWSFTPGTRASVWGINGRYLGPTIRVWKGDDVKLIYSNRLTENVSMTVAGLQVPGPLMGGPARMMSPNADWAPVLPIRQNAATLWYHANTPNRTAQQVYNGLAGMWLVEDEVSKSLPIPNHYGVDDFPVIIQDKRLDNFGTPEYNEPGSGGFVGDTLLVNGVQSPYVEVSRGWVRLRLLNASNSRRYQLQMNDGRPLHVISGDQGFLPAPVSVKQLSLAPGERREILVDMSNGDEVSITCGEAASIVDRIRGFFEPSSILVSTLVLTLRPTGLLPLVTDSLPMRLLPTEIMAGSPIRSRDISLGDDPGINGQLWDVNRIDVTAQQGTWERWTVRADEPQAFHIEGVMFQIRNVNGAMPFPEDRGWKDTVWVDGQVELLVYFGQPSWAHFPFYFNSQTLEMADRGSIGQLLVNPVP
TatB3C3 complex [1]
  stoichiometry N: 1
TatB3C3 complex [2]
  stoichiometry N: 2

B2: TatB (natural protein)
chain: MFDIGFSELLLVFIIGLVVLGPQRLPVAVKTVAGWIRALRSLATTVQNELTQELKLQEFQDSLKKVEKASLTNLTPELKASMDELRQAAESMKRSYVANDPEKASDEAHTIHNPVVKDNEAAHEGVTPAAAQTQASSPEQKPETTPEPVVKPAADAEPKTAAPSPSSSDKP
cryo-EM structure
  stoichiometry N: 3

B3: TatC with a C-terminal 3XFLAG tag, P69423 1-258 (natural protein)
chain: MSVEDTQPLITHLIELRKRLLNCIIAVIVIFLCLVYFANDIYHLVSAPLIKQLPQGSTMIATDVASPFFTPIKLTFMVSLILSAPVILYQVWAFIAPALYKHERRLVVPLLVSSSLLFYIGMAFAYFVVFPLAFGFLANTAPEGVQVSTDIASYLSFVMALFMAFGVSFEVPVAIVLLCWMGITSPEDLRKKRPYVLVGAFVVGMLLTPPDVFSQTLLAIPMYCLFEIGVFFSRFYVGKGRNREEENDAEAESEKTEE
[3]
  stoichiometry N: 3
